Measurements: the RNAGym collection of RNA variant scans (doi:10.7554/elife.90254)

B1: LINE1-mini (parent)
chain: GGCAGAGCUCAACACAGCGUGGCAAAGUGGCUGUGGCUAGACUGCC

Variants of: B1
Assay: self-cleavage, relative activity (ratio to wild type); higher = more cleavage; in vitro, sequencing; the parent is a self-cleaving ribozyme

Point of comparison: GGCAGAGCGCAACACAGCGUGGCAAAGUGGCUGGGGCUAGACUGCC, self-cleavage 0.05. Against it:
- GGCAGAGCUCAACACAGCGUGGCAGAGUGGCUGUGGCUAGACCGCC — higher, 0.1
- GGCAGAGCUCAGCACAGCGUGGCAAAGUGGGUGUGGCUAGACUGCC — lower, 0.04
- GGCAGAGCUCAACACAGCGUGGCCAAGUCGCUGUGGCUAGACUGCC — higher, 0.54
- GGCAGAGCCCAACACGGCGUGGCAAAGUGGCUGUGGCUAGACUGCC — lower, 0.03
- GGCAGAGCUCAACAUGGCGUGGCAAAGUGGCUGUGGCUAGACUGCC — higher, 0.42
- GGCAGAGCUCAACACAGCGUGGCAAAGCGGCUGUGGCUAGACUCCC — higher, 0.27
- GGCAGAGCUCAACACAGCGUGGUAAAGUGCCUGUGGCUAGACUGCC — higher, 2.32
- GGCAGAGCUCAACACAGCUUGGCCAAGUGGCUGUGGCUAGACUGCC — higher, 0.73
- GGCAGAGCACAACACAGCGUGGCAAAGUGGCUGUGGCUAGACAGCC — higher, 0.2
- GGCAGAGCUCAGCACAGCGUGGCAAAGUGGUUGUGGCUAGACUGCC — the same, 0.05
- GGCAGAGCUCAACACAGCGUGGCAAAGUGGCUGUGGCUAAACUUCC — higher, 0.08
- GGCAGAGCUCACCACAGCGUGGCAAAGUGGCUGUGGCUUGACUGCC — lower, 0.02
- GGCAGAGCUCAACACAGCGUGGCCAAGUGGCUGUGGCUAGACUUCC — higher, 0.13
- GGCAGAGCUCCACACAGCGUGGCAAAGUGGCUGGGGCUAGACUGCC — lower, 0.04
- GGCAGAGCUCAACACAGCAUGGCAAAGUGGCUGUGGCUAGACUGCC — higher, 1.5
- GGCAGAGCUCAACACAGCGUGGCAAAGUAGCUGUGGCUGGACUGCC — higher, 0.07
- GGCAGAGCUCAACACAUCGUGGCAAAGUGGCUGUGGCUAGACUUCC — higher, 0.06
- GGCAGAGCUCAACACGGCGUGGCAAAGUGGCUGUGGCUAGACCGCC — lower, 0.04
- GGCAGAGCUUAACACAGCGUGGCAAAGUGGCUAUGGCUAGACUGCC — the same, 0.05
- GGCAGAGCUAAACACAGCGUGGCAAAAUGGCUGUGGCUAGACUGCC — higher, 0.06
- CCCAGAGCUCAACACAGCGUGGCAAAGUGGCUGUGGCUAGACUGCC — higher, 0.15
- GGCAGAGCUCAACACAGCGUGGCAAACUGGCUGUGGCUAGCCUGCC — lower, 0.03
- GGCAGAGCUCAACACAGCGUGGCAAAGUGGCUGUAGCUAGACUGCC — higher, 0.16
- GGCACAGCUCAACACAGCGUGGCAAAGUGGCUGUAGCUAGACUGCC — higher, 0.1
- GGCAGAGCUCAACACAUCGUGGCAGAGUGGCUGUGGCUAGACUGCC — higher, 0.07
- GGCAGAGCUGAACACAGCGUGGCAAGGUGGCUGUGGCUAGACUGCC — higher, 0.12
- GGCAGAGAUCAACACAGCGUGGCAAAGUGUCUGUGGCUAGACUGCC — higher, 0.59
- GGCAGAGCUCAACACAGCGUGGCAAAGUGGCUGUGGCUAGGCUGCA — higher, 0.22
- GGCAGAGCUCAACACUGCGUGGCAAAGUGGCUGUCGCUAGACUGCC — higher, 0.07
- GGCAGAGCUCAACACUGCGUGGCAAAGUGGCUGUGGCUAGAAUGCC — the same, 0.05
- GGCAGAGCUCAGCACAACGUGGCAAAGUGGCUGUGGCUAGACUGCC — lower, 0.02
- GGCAGAGCUCAACACAGCGUGGCAAAGUGGAUGUGGCUAGCCUGCC — lower, 0.03
- GGCAGAUCUCAACAAAGCGUGGCAAAGUGGCUGUGGCUAGACUGCC — higher, 0.16
- GCCAGAGCUCAACACAGCGUGGCAAAGUGGCUGCGGCUAGACUGCC — higher, 0.06
- GGCAGAGCUCAACGCAGCGUGGCAAAGAGGCUGUGGCUAGACUGCC — higher, 0.39
- GGCAGAGCUCAACACAGAGUGGCAAAGUGGCUGUGGCUACACUGCC — lower, 0.03
- GCCAGAGCUCAACACAGCGUGACAAAGUGGCUGUGGCUAGACUGCC — higher, 0.15
- CGCAGAGCUCAACACAGCGUCGCAAAGUGGCUGUGGCUAGACUGCC — higher, 0.06
- GGCAGAGCUCAACAGAGCGUGGCAAAGUGGCUAUGGCUAGACUGCC — lower, 0.03
- GGCAGAGCUCAACACAGCGUGGCAAAGUGGUUGUGACUAGACUGCC — higher, 0.12
- GGCAGAGCUCAACACAGCGUGGCAAAGCGGCUGUAGCUAGACUGCC — higher, 0.21
- GGCAGAGCUCAACACAGCGUGGCAAAGUGUCUGUGGCUAAACUGCC — higher, 0.08
- GGCAGAGCUCAACACAUCGUGGCAAAGUGGCUGUGUCUAGACUGCC — the same, 0.05
- GGCAGAGCUCAACACAGGGUUGCAAAGUGGCUGUGGCUAGACUGCC — higher, 1.38
- GGCAGACCUCAACACAGCGUGGCAAAGUGGCUGUGGCUAGACUGCA — higher, 0.18
- GGCAGAGCUCAAGCCAGCGUGGCAAAGUGGCUGUGGCUAGACUGCC — the same, 0.05
- GGCAGCUCUCAACACAGCGUGGCAAAGUGGCUGUGGCUAGACUGCC — higher, 0.1
- GGCAGAGCUCAACGCAGCGUGGCAAAGUGGCUGUGGCUAGACUGCC — higher, 0.58
- GGCAGAGCUCAAGACAGCGUGGCAAAGUGGCUGUGGGUAGACUGCC — lower, 0.04
- GGCAGACCUCAACAUAGCGUGGCAAAGUGGCUGUGGCUAGACUGCC — higher, 0.14
- GGCGGAGCUCAACACAGCGUGGCAAAGUGGCUGUGGCUAGACUGCA — higher, 0.4
- GGCAGAGCUCAACACAGCGGGGCAAAGUGGCUGUGACUAGACUGCC — higher, 0.08
- GGCAGAGCUCAACUCAGCGUGGCAAAGGGGCUGUGGCUAGACUGCC — higher, 0.3
- GGCAGAGCUCACCACAGAGUGGCAAAGUGGCUGUGGCUAGACUGCC — lower, 0.03
- GGCAGAGCUCAACACAACGUGGCAAAGUGGCUGUGGCUAGACUACC — lower, 0.04
